Assay results: the DeepSol protein solubility set

Assay: soluble on expression in E. coli; label from the status in PepcDB or PDB records
With “SLDGAHKMARVWVGILNWSLKHIVGLKYRIIGAENIPDRPAVICAKHQSGWETLALQDIFPPQVYVAKRELFKIPFFGWGLKLVKTIGIDRNNRREANEQLIKQGLVRKNEGYWITIFPEGTRLAPGKRGKYKLGGARMAKMFEMDIVPVALNSGEFWPKNSFLKYPGEITVVICPTIPHASGSEAELMEKCEHLIETQQPLISGAGPFAAKMPSETAEG” the “soluble on expression in E. coli” value was “soluble”. In the case of “MGPLPRKGNMKQKITDYLDEIYGGTFTATHLQKLVTRLESAKRLITQRRKKHWDESDVVLITYADQFHSNDLKPLPTFNQFYHQWLQSIFSHVHLLPFYPWSSDDGFSVIDYHQVASEAGEWQDIQQLGECSHLMFDFVCNHMSAKSEWFKNYLQQHPGFEDFFIAVDPQTDLSAVTRPRALPLLTPFQMRDHSTRHLWTTFSDDQIDLNYRSPEVLLAMVDVLLCYLAKGAEYVRLDAVGFMWKEPGTSCIHLEKTHLIIKLLRSIIDNVAPGTVIITETNVPHKDNIAYFGAGDDEAHMVYQFSLPPLVLHAVQKQNVEALCAWAQNLTLPSSNTTWFNFLASHDGIGLNPLRGLLPESEILELVEALQQEGALVNWKNNPDGTRSPYEINVTYMDALSRRESSDEERCARFILAHAILLSFPGVPAIYIQSILGSRNDYAGVEKLGYNRAINRKKYHSKEITRELNDEATLRHAVYHELSRLITLRRSHNEFHPDNNFTIDTINSSVMRIPRSNADGNCLTGLFNVSKNIQHVNITNLHGRDLISEVDILGNEITLRPWQVMWIK”, the “soluble on expression in E. coli” value is reported as “not soluble”. For “MGSDKIHHHHHHMSEIWRQCKGERHIRPLQGRLVRLVESQEQVATLQLVDTLEEQALLEELLESSKPPVPADAEPLHYLLKTPFRYPPLRWGSRFGRRHEPSLFYAALKLETAMAESAYYRCVLWSGMVVPPPSGRILSEHASFEAGWKVERGIRLQAPPFSDHEAALTDIADYRAPQELGSAMRSAGVQAFEYRSARCPERGCNVALFTPAAFTEKRPRNLTPWLCETTAGYVAFKPAHVPGSPKIFSWELFLVDGKLPHPA”, the “soluble on expression in E. coli” value was “not soluble”. With “MKTHQYELIDEKVFEHEFDNGLKLFIIPKPGFQKTYVTYTTQFGSLDNHFKPIGSQQFVKVPDGVAHFLEHKLFEKEDEDLFTAFAEENAQANAFTSFDRTSYLFSATSNIESNIKRLLNMVETPYFTEETVNKEKGIIAEEIKMYQEQPGYKLMFNTLRAMYSKHPIRVDIAGSVESIYEITKDDLYLCYETFYHPSNMVLFVVGDVSPQSIIKLVEKH” the “soluble on expression in E. coli” value was “not soluble”. With “MSLPHVILTVLSTRDATGYDITKEFSASIGYFWKASHQQVYRELNKMGEQGLVTCVLEPQEGKPDRKVYSITQAGRSALGEWFDQPTAHPTVRDEFSAKLMACSVQSAEPYRLQLAELVEESRKLVAHYQEIEAAYYANPAVLDKQQRLERLTLRRNLLVRQAWIQWADEVLAELNAMA” the “soluble on expression in E. coli” value was “soluble”. In the case of “MSLVLPSGAFTLKNVTVPAAIFGQRGDLISTDIGIVDGQISAPGGKVIEMAEAMVLPAFVDCHTHLDKGHILPRAQNPDGTFVGALTSVREDHLNWTSKDVRTRADFSIRCAYAHGTRAIRTHVDSMNGQYKRSWPVFAGLREKWANKVELQMTSLITCESYGMPEYAEIAATVAHFDGVLGMVSFPMPDLKKVLLSHFETAGNLGLALDFHTDETMDPSSETLRVIAECVMETGFCGRVLVGHCCSLSQQEENLAMDTLDLVAKAKIDVVSLPMCNLYLQDRHAGRTPRGRGVTLVHEMKARGINVSFASDNTRDPFYAYGDMDMLEVMRMATRIAHLDHSDFDWVKSFSQTPAEVCDFPDLSLAHGTTADLVIFNARNWNELYSRPQSDRIVLRNGIAIDRKLPSYSELDALLEAYKEGHHHHHH”, the “soluble on expression in E. coli” value is reported as “soluble”. With “MGSDKIHHHHHHLSTSQPAEPGDEIARLGALAADFRRRLELDPGAIYPAHAECLWRLGNLQIAQGDVEAGLLSISDSVGLYRAIAQAQPDSYAVQLASLLNSQSNMLAEASHLEEARAIASDAVEHARSAMDDYGDQARFVLVSALINLAGLKMRSGDTAGTVDELAQAVEVFRDGGTAGQPFLGSMVEALHRAAMAFTEVGLWNEAIDTRRLLIGLFGQAPPSAVVQLLMLTLQQASVGLAGTGDTAKALVHANEAVDLARMLFAADGQANRLALAQAVGNLAGRHHDAGSLKEALDLSLEAVDLFQDAVSMDPIHAVPSLIVTLDCMASILTALGLPDQAATVREQRSQLQETLEIIAPRAN” the “soluble on expression in E. coli” value was “not soluble”. For “MAHHHHHHMEDAYAGLCSQSVFEPKMDFTLCINKSIKLFLKDINISKYDKNNVDNKKDVNTSDTKVIETSNDQNQNNQNDQNDQQSDILNNQHLLKENEAFLNGYLYFSRIGHNINLLLNELSSIKKDFRFLNKETRKKIKKFKQVKNKNIIYKDLLQDIKEKRKRKEIYEKLSIEIKKLDEVKKVQEKQKIEKDEINNLEHKILNIENIIKSNNDHIQETINQINKIVSENIQI”, the “soluble on expression in E. coli” value was “not soluble”. With “RQACYQEIIDTILSKKPHAFESLVVLLLQKMGYGGEIKQSGLVTPYSNDGGIDGIIKEDVLGFGRIHIQAKRYALENSVQRQEIQSFVGALAVAQSNKGVFITTSSFSRGAIQYAVGLNGSTTLILIDGQKLAEYIYEYGVGLQVEHTVEIKKLDSEFWDSMENEAGVPDL” the “soluble on expression in E. coli” value was “not soluble”. In the case of “MVTPFPEVSEWLCIGQIVGAHGLRGEVKVKPFSDFPERFTVPGCRWLRSPRQPQPYAVTLLRGRFLPRAEQFVVTFAEISDRTAAEALKGAEILVPASDRPPLAANEYHLMDLIGLAVYHQGERVGEVVGLVNAGNDLLEVQLLDPAPKAPQSVYIPFVPAIVPVVDLAARRIEIDPPLGLLPLEHHHHHH”, the “soluble on expression in E. coli” value is reported as “not soluble”. For “MGMTRNLLAAGLAAVLALPALAAELVMVEQHGCEWCARWNEEIAPIYPKTAEGAFAPLRRVDLRAIPADLETARRVVFTPTFLIVEDGRELARLEGYPGEDFFWPLLEQLLVDHAGFVPKKPGSS”, the “soluble on expression in E. coli” value was “not soluble”. In the case of “MANEVIKCKAAVAWEAGKPLSIEEIEVAPPKAHEVRIKIIATAVCHTDAYTLSGADPEGCFPVILGHEGAGIVESVGEGVTKLKAGDTVIPLYIPQCGECKFCLNPKTNLCQKIRVTQGKGLMPDGTSRFTCKGKTILHYMGTSTFSEYTVVADISVAKIDPLAPLDKVCLLGCGISTGYGAAVNTAKLEPGSVCAVFGLGGVGLAVIMGCKVAGASRIIGVDINKDKFARAKEFGATECINPQDFSKPIQEVLIEMTDGGVDYSFECIGNVKVMRAALEACHKGWGVSVVVGVAASGEEIATRPFQLVTGRTWKGTAFGGWKSVESVPKLVSEYMSKKIKVDEFVTHNLSFDEINKAFELMHSGKSIRTVVKI”, the “soluble on expression in E. coli” value is reported as “soluble”. For “MIDNFWRELPRPFFVLAPMEDVTDVVFRHVVSEAGRPDVFFTEFTNSDSYCHPEGMKSVRGRLIFTEDEQPMVAHIWGDNPEYFRQMSIGMAELGFKGIDINMGCPVPNVASRGKGSGLILRPDVAAELIQAAKAGGLPVSVKTRLGFKELSEWEDWLTHIFKQDIANLSIHLRTREEMSQVDAHWELIPEIKKLRDRIAPNTLITINGDILDRKMGLELAEKYGIDGVMIGRGIFKNPFAFEKEPREHSSKEHLDLLRLQLDLQDQYAEVLPRSITGLHRFFKIYVKGFPGAAELRNQLMSTKSTDEVRALLDKFEASVDEAQDSETV”, the “soluble on expression in E. coli” value was “not soluble”. With “MGSDKIHHHHHHMKKYKNSLYVLALCGTMAACKPHIEEPSIDKGSLDVTKYVAVGNSITSGYADNALYYDGQQVSFANLLSGQFSKIGGGEFKQPLVSQTSVGVGSTGGARLKLALKTDCLGNTSLSPVPVAASGDLSIFGNIYSSAGPFNNMGVPGAKSVTTIYHGYGNPGNGLGKFNPFFTRMASNPATASILQDAMAQNPTFFTLFIGSNDVLLYALAGAANDSITPVAGGPGVGFDASMDAIVNTLVSGGAKGAIGNVPDITSLPYFTTVPYNGLVLTSQAQVDALNTAYTPFGITFHLGQNPFIIADAAAPGGRRQITSSEYVLLSVPQDSLKCNQWGSAKPIPNQYILTASEISNIRTAITNYNSKIKNLAAAHGLAFVDVNSFLMMAETGITYNGINLNTTFVSGGAFSLDGVHLTPIGNAMLANEFIKSINMTYGSTLPLIDATKYSGVKFP” the “soluble on expression in E. coli” value was “not soluble”. With “MRIGIVGAGLGGLLAGALLSKNHEVVVFEKLPFLGGRFTNLKYEGFQLTTGALHMIPHGNDGYLAQALRKAGANVKIINSKPDGTFLINGKEYLYKELFSLLGFKEKAKAFKLATKLKLGKVDKNISFGEFLEEIDLALKVGNAFTGWALSLTAYETPMSEIIEIAKNYHKFGGPGIPIGGCKAVTDELSRIIKKNNGKIIKEYEVKRIEIDEKAYIDDYEFDVVISNISPIETQKICNIKFLKSKPKPSKGIKISIATKEGIIKHGGVLFTPECERINGLNQVTNVDKSLAPEGWHLVMTHQTQLTNNVKKEIDLGLEDIENLFKGKDYKILHIQSYRDDWPVNHASNGTDIDNIVNDRFYLVGDGAKGRGGIEVEGIAMGVLKVVNYINSLLEHHHHHH” the “soluble on expression in E. coli” value was “soluble”. In the case of “MGHHHHHHGGHMSLTTSTPSNRILVVMSSAAQIPLQDGKNHNTGYFLNEFGVPAKRLTDAGYELVIATPRGSVPGMDHNSDHDMFFKNKEEHNEIKAFVGDVLSNTTIQTTEAVAAEGTQAYAALFLPGGHAPMADLMADPALGEILRQFHAAAKPTALICHAPTALLAAQADPVAFQKGMEAGEQPSAQDFTYQGYRVTVFANDEEEATEKTFEAPMLYYPADALTQGGAQVENGEAMKPNVVRDRELLTGQNPFSDEPFVAQLLEMLGEGGS”, the “soluble on expression in E. coli” value is reported as “soluble”. For “MAHHHHHHMGNGASVGENRHSQLFQQGYKSLQEGRYTYAEIYYDQAIERHEGHSFWTRLDDLIEWERRDKAGQKGTDAKQKTAYRDGGQEEAAFPEVRKDSLKEENEVNVEMGEAAGVGGSGKIEIPLDSRLADVVDYLVLRADIAESYMAEGRYEEATPHMDFLSSHTRVMLKFLQIARMTKAEESANSSNPLEGSTADAGADNAGGGNRRAHQGFMMVSDVERDSILDCFEQFLRMHWVSAMANSVFIVSERFKKGKSEKKHKKELDTAVVACAKIQEELYNVAKRRARSLSNSVVLSFLEGIMEELDAESSTTSITNERMGTANGKTRTNTLFEEQNNRSTGNRSANEIDMLTDRDECPIKVHLQMVYDRRSLCREVPAPQQAPTLRYITWIDDEIRRVVPGTNYNLEIQCGMVDEKRKKQLQKRSLKFAAQRNCNYNDRVLLGKSFDEENALLLFPVFLIQADVQFELGAATKGINALDIVDKLSTQLYGVGSLERQSIMRSVMESRKRGGSLFMMFED”, the “soluble on expression in E. coli” value was “soluble”. With “MSLVDTEIWLRLMSISSLYGDDMVRIAHWLARQSHIDAVVLQQTGLTLRQAQRFLSFPRKSIESSLCWLEQPNHHLIPADSEFYPPQLLATTDYPGALFVEGELHALHSFQLAVVGSRAHSWYGERWGRLFCETLAKHGVTITSGLARGIDGVAHKAALQVNGVSIAVLGNGLNTIHPRRHARLAASLLEQGGALVSEFPLDVPPLAYNFPRRNRIISGLSKGVLVVEAALRSGSLVTARCALEQGREVFALPGPIGNPGSEGPHWLIKQGAILVTEPEEILENLQFGLHWLPDAPENSFYSPDQEDVALPFPELLANVGDEVTPVDVVAERAGQPVPEVVTQLLELELAGWIAAVPGGYVRLRRACHVRRTNVFVEGHHHHHH” the “soluble on expression in E. coli” value was “soluble”. In the case of “MAQKKGRESDSVAEGLRPAEEGDVLELDECWTYVRERANKRWLWVALCRRTRQVVAFVIGDRSARTCARLWSRIPEEYRQGRSFSDFWKSYRPVFAGDPSHRQVGKSSGEMAHVERFFGRLRQKLARYVRRTRAASESERMLHLTTKLFVEWYNEAIT”, the “soluble on expression in E. coli” value is reported as “not soluble”. In the case of “MIAQLPSELLSLQLPLRIRIGDAQAFDLGPDPQVTMVIRDPSLLTEITHPSLDALGKAYVEKRLDIEGPISQVIGIGDALSEALGEPDGGAPPVRESHDKDTDAEAIHYHYDLSNDFYQLWLDPEMVYSCAYFETGKEDLATAQLAKLRHLCRKLRLQPGEKLLDVGCGWGGLARLAAREFGVEVTGITLSKEQLALGRERVKAEGLEDRVTLKLLDYRDLPRDGRFDKVVSVGMFEHVGHANLGLYFQQLYEAVRPGGLVMNHGITSRYTDGRPVGKGAGDFIDRYVFPHGELPHLSLAVARMSEAGLEVVDVESLRLHYARTLDFWSANLEARLKEAARLVPEETLRIWRLYLAGCAYGFKRGWINL”, the “soluble on expression in E. coli” value is reported as “not soluble”.
